Experimental data as given in patent publication US10501734B2, “Compositions and methods of use thereof for making polypeptides with many instances of nonstandard amino acids” (Yale University, priority 2014, dated 2019).
Where two headings read alike, the source gives them in different places.

Tests used:
GFP(3TAG) [1] = format: cell-based, E. coli; conditions: chromosomally integrated AARS; pAcF
Method: (§1) Liquid cell cultures of strains harboring chromosomally integrated OTSs and GFP reporter plasmids were inoculated from frozen stocks and grown to confluence overnight. Cultures were then inoculated at 1:20 dilution in LBmin media supplemented with 30 μg/ml kanamycin. Strains were inoculated by addition of 1:20 confluent cell culture (grown overnight) and allowed to grow at 34° C. to an OD600 of 0.5-0.8 in a shaking plate incubator at 650 r.p.m (˜3 h). AARS expression was then induced by the addition of 0.2% arabinose, GFP expression was induced by the addition of 60 ng/ul anhydrotetracycline, and the appropriate nsAA was added to a concentration of 1 mM. Cells were incubated at 34° C. for an additional 16 h. Liquid cell cultures of strains harboring plasmid-based OTSs and GFP or ELP-GFP reporter plasmids were inoculated from frozen stocks and grown to confluence overnight. Cultures were then inoculated at 1:20 dilution in 2×YT media supplemented with 30 μg/ml kanamycin and 20 μg/ml chloramphenicol. […] Cells were allowed to grow at 34° C. to an OD600 of 0.5-0.8 in a shaking plate incubator at 650 r.p.m (˜3 h), reporter protein expression was then induced by the addition of 60 ng/ul anhydrotetracycline, and cells were incubated at 34° C. for an additional 16 h.
(§2) For 384 well plate-based assays, fluorescence and OD600 were directly measured following expression. For 96 well plate-based assays, cells were centrifuged at 4,000 g for 4 min. Supernatant medium was removed and cells were resuspended in PBS. This process was repeated twice with PBS. GFP fluorescence was measured on a Biotek spectrophotometric plate reader using excitation and emission wavelengths of 395 and 509 nm, respectively). Fluorescence signals were normalized by dividing the fluorescence counts by the OD600 reading. The nsAAs used in this study were purchased from Sigma-Aldrich (St. Louis, Mo.), Chemlmpex (Wood Dale, Ill.), and Bachem (Torrance, Calif.). Solutions of nsAAs (50 mM) were made in water or 50 mM NaOH; these stock solutions were diluted 50- or 100-fold (to 1 mM final concentration) into medium used for bacterial growth.

GFP(3TAG) [2] = test: nsAA library screening, GFP(3TAG) fluorescence in 384 well plates; format: cell-based, E. coli; conditions: GFP(3TAG) production in the presence of pAcF, pAzF and 236 other nsAAs
Method: as §1
as §2, with “growth. […]” for “growth.”

[3] = ATP-PPi exchange assay (amino acid activation); format: biochemical
Method: A 25 μl ATP-PPi exchange reaction contained the following components: 100 mM HEPES-KOH (pH 7.5), 30 mM KCl, 10 mM MgCl2, 2 mM DTT, 2 mM KF, 2 mM NaPPi, 5 mM ATP, […], 2 μCi/μl of […] (PerkinElmer) and varied concentrations of amino acids (0.25, 0.5, 1.25, 2.5, 5, 10, and 20 mM, respectively). The reactions were incubated at 37° C. Time points were taken at 2 minutes, 5 minutes and 10 minutes by plotting 1 μl aliquots from the reaction immediately to the PEI-cellulose plates (Merck). For each reaction, 1 μl of blank reaction mixture containing no enzymes was set as background. The reaction mixtures were separated on the plates in 1 M urea and 1 M monopotassium phosphate. The plates were then scanned in a Molecular Dynamics Storm 860 phosphorimager (Amersham Biosciences). The ratio of ATP to PPi was determined to monitor reaction progress. The kinetic constants were derived from plotting initial velocity of a series of reactions that contained varied concentrations of amino acids. The data were analyzed by GraFit 5.0 (Erithacus Software).

tRNA = test: Aminoacylation assay (tRNA charging); format: biochemical
Method: Template plasmid containing tRNA gene was purified with the plasmid maxi kit (Qiagen), and 100 μg of plasmid was digested with BstNI (New England Biolabs). The BstNI digested template DNA was purified by phenol chloroform extraction, followed by ethanol precipitation and resolved in double distilled water. A His-tagged T7 RNA polymerase was purified over column of Ni-NTA resin according to manufacturer's instructions (Qiagen). The transcription reaction [40 mM Tris (pH 8); 4 mM each of UTP, CTP, GTP, and ATP at pH 7.0; 22 mM MgCl2; 2 mM spermidine; 10 mM DTT; 6 μg pyrophosphatase (Roche Applied Science); 60 μg/mL BstNI digested DNA template, approximately 0.2 mg/ml T7 RNA polymerase] was performed in 10 ml reaction volumes for overnight at 37° C. The tRNA was purified on 12% denaturing polyacrylamide gel containing 8 M urea and TBE buffer (90 mM Tris, 90 mM boric acid, 2 mM EDTA). UV shadowing illuminates the pure tRNA band, which is excised and extracted three times with 1M sodium acetate pH 5.3 at 4° C. The tRNA extractions were then ethanol precipitated, dissolved in RNase-free distilled water, pooled, and finally desalted using a Biospin 30 column (BioRad). The ratio of aminoacylated tRNA to total tRNA was determined to monitor reaction progress.
The tRNA was refolded by heating to 100° C. for 5 min and slow cooling to room temperature. At 65° C., MgC12, was added to a final concentration of 10 mM to aid folding. A His-tagged CCA adding enzyme was purified over column of Ni-NTA resin according to manufacturer's instructions (Qiagen). 16 μM folded tRNA in 50 mM Tris (pH 8.0), 20 mM MgCl2, 5 mM DTT and 50 μM NaPPi was incubated at room temperature for 1 hour with approximately 0.2 mg/ml CCA-adding enzyme and 1.6 μCi/μl of [α-32P]-labeled ATP (PerkinElmer). The sample was phenol/chloroform extracted and then passed over a Bio-spin 30 column (Bio-Rad) to remove excess ATP.
A 20 μl aminoacylation reaction contained the following components: 50 mM HEPES-KOH (pH 7.2), 25 mM KCl, 10 mM MgCl2, 5 mM DTT, 10 mM ATP, 25 μg/ml pyrophosphatase (Roche Applied Science), 2 mM amino acids. All plateau tRNA aminoacylation levels were determined at 37° C. according to the reactions conditions described above with 500 nM enzyme, 5 μM unlabeled tRNA plus 100 nM 32P-labeled tRNA. Time points were taken at 5 minutes, 20 minutes and 60 minutes by removing 2 μl aliquots from the reaction and immediately quenching the reaction into an ice-cold 3 μl quench solution [0.66 μg/μl nuclease P1 (Sigma) in 100 mM sodium citrate (pH 5.0)]. For each reaction, 2 μl of blank reaction mixture containing no enzymes was added to the quench solution as the start time point. The nuclease P1 mixture was then incubated at room temperature for 30 min and 1 μl aliquots were spotted on PEI-cellulose plates (Merck) and developed in running buffer containing 5% acetic acid and 100 mM ammonium acetate. Radioactive spots for AMP and AA-AMP (representing free tRNA and aminoacyl-tRNA, respectively) were separated and then visualized and quantified by phosphor imaging by a Molecular Dynamics Storm 860 phosphorimager (Amersham Biosciences). The ratio of aminoacylated tRNA to total tRNA was determined to monitor reaction progress.

[4] = nsAA pAcF, relative to progenitor pAcFRS
[5] = nsAA pAzF, relative to progenitor pAcFRS
[6] = amino acid Tyrosine, relative to pAcFRS

B1: pAcFRS.1: pAcFRS variant A167D, SEQ ID NO: 2 (protein)
chain: MDEFEMIKRNTSEIISEEELREVLKKDEKSALIGFEPSGKIHLGHYLQIKKMIDLQNAGFDIIILLADLHAYLNQKGELDEIRKIGDYNKKVFEAMGLKAKYVYGSEFQLDKDYTLNVYRLALKTTLKRARRSMELIAREDENPKVAEVIYPIMQVNGCHYRGVDVDVGGMEQRKIHMLARELLPKKVVCIHNPVLTGLDGEGKMSSSKGNFIAVDDSPEEIRAKIKKAYCPAGVVEGNPIMEIAKYFLEYPLTIKRPEKFGGDLTVNSYEELESLFKNKELHPMRLKNAVAEELIKILEPIRKRL
Question: For B1, which “higher GFP(3TAG) production compared with the progenitor enzyme” value (GFP(3TAG) [1]) is on record?
Answer: ~8 fold

Question: What about the “nsAA specificity (polyspecificity)” value (GFP(3TAG) [2]) of the same molecule?
Answer: polyspecifity for at least pAcF, pAzF, StyA, 4IF, 4BrF, 4ClF, 4MeF, 4Cf3F, MeY, 4NO2F, 4BuF, BuY, 2NaA, PheF

Question: What about the Km ([3]; nsAA pAcF) of the same molecule?
Answer: 2160 ± 720 µM

Question: What about the kcat ([3]; nsAA pAcF) of the same molecule?
Answer: 6.84 ± 0.64 ×10^−2 s^−1

Question: And the Fold change [3, 4]?
Answer: 4.64

Question: What about the Km ([3]; nsAA pAzF) of the same molecule?
Answer: 1740 ± 390 µM

Question: And the kcat ([3]; nsAA pAzF)?
Answer: 3.50 ± 0.20 ×10^−2 s^−1

Question: What about the Fold change [3, 5] of the same molecule?
Answer: 1.37

Question: What about the Km (tRNA; nsAA pAcF) of the same molecule?
Answer: 36 ± 7 µM

Question: What about the kcat (tRNA; nsAA pAcF) of the same molecule?
Answer: 1.21 ± 0.24 ×10^−3 s^−1

Question: What about the Fold change (tRNA; [4]) of the same molecule?
Answer: 4.60

Question: And the Km (tRNA; nsAA pAzF)?
Answer: 31 ± 9 µM

Question: And the kcat (tRNA; nsAA pAzF)?
Answer: 0.65 ± 0.20 ×10^−3 s^−1

Question: And the Fold change (tRNA; [5])?
Answer: 3.38

B2: WTmjYRS: wild-type M. jannaschii TyrRS, the parent AARS of pAcFRS (protein, UniProt Q57834 1-306, looked up)
Tyrosine--tRNA ligase: MDEFEMIKRNTSEIISEEELREVLKKDEKSAYIGFEPSGKIHLGHYLQIKKMIDLQNAGFDIIILLADLHAYLNQKGELDEIRKIGDYNKKVFEAMGLKAKYVYGSEFQLDKDYTLNVYRLALKTTLKRARRSMELIAREDENPKVAEVIYPIMQVNDIHYLGVDVAVGGMEQRKIHMLARELLPKKVVCIHNPVLTGLDGEGKMSSSKGNFIAVDDSPEEIRAKIKKAYCPAGVVEGNPIMEIAKYFLEYPLTIKRPEKFGGDLTVNSYEELESLFKNKELHPMDLKNAVAEELIKILEPIRKRL
Question: For B2, which kcat ([3]; amino acid Tyrosine) is on record?
Answer: 52.2 ± 4.1 ×10^−2 s^−1

Question: What about the Km ([3]; amino acid Tyrosine, read-out: Km, nsAA) of the same molecule?
Answer: 76 ± 30 µM

Question: What about the Fold change [3, 6] of the same molecule?
Answer: 1007

Question: What about the Km (tRNA; amino acid Tyrosine) of the same molecule?
Answer: 23 ± 3 µM

Question: And the kcat (tRNA; amino acid Tyrosine)?
Answer: 130 ± 22 ×10^−3 s^−1

Question: What about the Fold change (tRNA; [6]) of the same molecule?
Answer: 774

B3: pAcFRS.t2: pAcFRS variant R257C, F261E, SEQ ID NO: 4 (protein)
chain: MDEFEMIKRNTSEIISEEELREVLKKDEKSALIGFEPSGKIHLGHYLQIKKMIDLQNAGFDIIILLADLHAYLNQKGELDEIRKIGDYNKKVFEAMGLKAKYVYGSEFQLDKDYTLNVYRLALKTTLKRARRSMELIAREDENPKVAEVIYPIMQVNGCHYRGVDVAVGGMEQRKIHMLARELLPKKVVCIHNPVLTGLDGEGKMSSSKGNFIAVDDSPEEIRAKIKKAYCPAGVVEGNPIMEIAKYFLEYPLTIKCPEKEGGDLTVNSYEELESLFKNKELHPMRLKNAVAEELIKILEPIRKRL
Question: Which “higher GFP(3TAG) production compared with the progenitor enzyme” value (GFP(3TAG) [1]) does the source give for B3 here?
Answer: ~1.5 fold

Question: And the “nsAA specificity (polyspecificity)” value (GFP(3TAG) [2])?
Answer: polyspecifity for at least pAcF, pAzF, StyA

Question: And the Km ([3]; nsAA pAcF)?
Answer: 8590 ± 3230 µM

Question: What about the kcat ([3]; nsAA pAcF) of the same molecule?
Answer: 6.67 ± 1.27 ×10^−2 s^−1

Question: And the Fold change [3, 4]?
Answer: 1.14

Question: And the Km (tRNA; nsAA pAcF)?
Answer: 29 ± 3 µM

Question: And the kcat (tRNA; nsAA pAcF)?
Answer: 0.27 ± 0.07 ×10^−3 s^−1

Question: And the Fold change (tRNA; [4])?
Answer: 1.27

B4: pAcFRS.t1: pAcFRS variant R257G, SEQ ID NO: 3 (protein)
chain: MDEFEMIKRNTSEIISEEELREVLKKDEKSALIGFEPSGKIHLGHYLQIKKMIDLQNAGFDIIILLADLHAYLNQKGELDEIRKIGDYNKKVFEAMGLKAKYVYGSEFQLDKDYTLNVYRLALKTTLKRARRSMELIAREDENPKVAEVIYPIMQVNGCHYRGVDVAVGGMEQRKIHMLARELLPKKVVCIHNPVLTGLDGEGKMSSSKGNFIAVDDSPEEIRAKIKKAYCPAGVVEGNPIMEIAKYFLEYPLTIKGPEKFGGDLTVNSYEELESLFKNKELHPMRLKNAVAEELIKILEPIRKRL
Question: With B4 as the molecule, how does the “higher GFP(3TAG) production compared with the progenitor enzyme” value (GFP(3TAG) [1]) read?
Answer: ~1.5 fold

Question: And the “nsAA specificity (polyspecificity)” value (GFP(3TAG) [2])?
Answer: polyspecifity for at least pAc.F, pAzF, StyA

Question: What about the Km ([3]; nsAA pAcF) of the same molecule?
Answer: 9170 ± 3670 µM

Question: What about the kcat ([3]; nsAA pAcF) of the same molecule?
Answer: 6.92 ± 1.27 ×10^−2 s^−1

Question: And the Fold change [3, 4]?
Answer: 1.11

Question: What about the Km (tRNA; nsAA pAcF) of the same molecule?
Answer: 17 ± 3 µM

Question: And the kcat (tRNA; nsAA pAcF)?
Answer: 0.22 ± 0.02 ×10^−3 s^−1

Question: And the Fold change (tRNA; [4])?
Answer: 1.77
